Assay results: patent US20250295587A1, “COMPLEX LIPID NANOPARTICLES ENCAPSULATING POLYPEPTIDES AND USES THEREOF” (SAIL BIOMEDICINES, INC., priority 2022, published 2025)

Experiments:
[1] = Particle loading / insulin encapsulation efficiency by bicinchoninic acid assay (BCA); type: physicochemical; conditions: insulin concentration of the dosed preparation
Description: Next, the mixture of re-hydrated particles containing the active biomolecule was purified and separated from the free active biomolecule not loaded in the particles by a dialysis step overnight. The dialysis was performed in a 100 kD dialysis membrane in the buffer used for the formulation process as discussed above, at a buffer volume at least 2000× the volume of the solution to be purified (e.g., 0.1M sodium bicarbonate, pH 8.2, buffer). The dialysate was concentrated in centrifugal unit to the preferred concentration. Alternatively, the purification and separation step could be performed with tangential flow filtration (TFF). The described purification steps are optional and were not performed for all formulations. Particle morphological characteristics were analyzed with dynamic light scattering methods. Particle loading efficiency was quantified with a bicinchoninic acid assay (BCA).
The insulin encapsulation efficiency of the complex lipid formulations (the amount of insulin that was trapped to the vesicles) was also characterized, and the results ranged consistently from 25-35%. Similar characterizations were measured for other formulations of complex lipid particles.

[2] = parameters: species or system mice; conditions: mouse, in vivo
Description: The animals used were C57BL6 female 8-week-old mice (Jax #0664). […] Mice were weighed, and a pre-bleed sample was taken (through tail vein, retro-orbital or submandibular means). The mice were fasted overnight before being dosed via intracolonic administration with 50 uL of a given insulin-loaded complex lipid formulation (Table 8). Non-terminal bleeds at 30 minutes and 60 minutes post-dose were taken, alternating routes of collection. A terminal bleed at 120 minutes post-dose via cardiac puncture was also taken. Whole blood samples from the pre-bleed, 30 minute, 60 minute, and 120 minute bleeds were processed for plasma then stored at −80° C. Insulin levels were quantified by MSD assay. Exposure to the active biomolecule (e.g. insulin) was measured as area under the curve (AUC) of the four measured timepoints, and dose was measured as BCA*dose volume (0.05 mL). Therefore, the data in Table 9 for each mouse is shown as systemic levels of insulin (or exposure normalized by dose). […] Unexpectedly, 20 of 22 (>90%) different complex lipid formulations out-performed free IC insulin.

For “Control: free insulin given by intracolonic (IC) administration, not encapsulated”, the “BCA (Insulin mg/mL)” value [1] was “Avg = 1.16 mg/mL” and the “Systemic levels of insulin (exposure AUC normalized by dose), Avg” value [2] was “Avg = 290.1”.
